Test results published in publication PMC9734117, “Selective posttranslational inhibition of CaVβ1-associated voltage-dependent calcium channels with a functionalized nanobody” (Nature Communications, 2022).

What was measured:
Conditions in all cases: partners not purified
[1] = target: Cerulean-CaVβ4 ( (human or rat cDNA cloned), UniProt O00305); experiment: FRET or BRET; flow cytometry FRET (flow-FRET) in live HEK293 cells co-transfected with Venus-nanobody and Cerulean-CaVβ; FRET efficiency against free nanobody fitted with a 1:1 binding model; effective dissociation constant (Kd,EFF); cycloheximide 100 μM 2 h before
[2] = target: Cerulean-CaVβ3 ( (human or rat cDNA cloned), UniProt P54284); experiment: as above
Sequence of Cerulean-CaVβ3 (P54284 whole entry): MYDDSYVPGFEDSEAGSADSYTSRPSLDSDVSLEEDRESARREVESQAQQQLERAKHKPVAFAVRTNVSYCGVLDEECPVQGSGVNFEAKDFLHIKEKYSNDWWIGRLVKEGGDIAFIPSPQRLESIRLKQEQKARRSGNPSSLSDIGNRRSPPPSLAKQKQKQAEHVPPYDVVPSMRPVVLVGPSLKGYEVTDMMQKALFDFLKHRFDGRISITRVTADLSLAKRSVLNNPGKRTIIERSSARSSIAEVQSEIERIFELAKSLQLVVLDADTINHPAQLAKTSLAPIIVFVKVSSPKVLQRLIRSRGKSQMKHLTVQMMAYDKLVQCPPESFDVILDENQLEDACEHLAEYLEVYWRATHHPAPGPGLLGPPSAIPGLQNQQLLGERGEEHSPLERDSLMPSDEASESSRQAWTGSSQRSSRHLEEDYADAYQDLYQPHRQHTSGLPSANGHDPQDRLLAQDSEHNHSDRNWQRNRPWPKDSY

[3] = target: Cerulean-CaVβ1 ( (human or rat cDNA cloned), UniProt Q02641-1); experiment: as above
Sequence of Cerulean-CaVβ1 (Q02641 whole entry): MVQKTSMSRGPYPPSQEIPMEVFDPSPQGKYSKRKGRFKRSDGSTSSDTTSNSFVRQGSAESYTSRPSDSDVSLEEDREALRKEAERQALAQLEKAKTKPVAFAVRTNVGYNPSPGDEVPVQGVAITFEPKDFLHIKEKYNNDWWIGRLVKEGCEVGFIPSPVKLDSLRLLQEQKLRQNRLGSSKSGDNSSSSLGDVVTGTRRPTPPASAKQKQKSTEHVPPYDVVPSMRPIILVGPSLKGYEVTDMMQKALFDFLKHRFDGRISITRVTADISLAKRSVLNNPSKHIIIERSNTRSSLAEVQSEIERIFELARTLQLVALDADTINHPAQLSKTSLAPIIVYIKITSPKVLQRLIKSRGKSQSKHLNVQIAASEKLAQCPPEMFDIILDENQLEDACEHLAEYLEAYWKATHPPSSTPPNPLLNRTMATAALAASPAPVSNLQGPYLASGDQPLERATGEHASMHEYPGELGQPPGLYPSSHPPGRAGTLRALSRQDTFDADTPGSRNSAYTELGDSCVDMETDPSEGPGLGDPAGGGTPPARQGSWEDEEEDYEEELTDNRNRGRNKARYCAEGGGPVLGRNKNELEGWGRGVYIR

[4] = target: Cerulean-CaVβ2 ( (human or rat cDNA cloned), UniProt Q08289); experiment: as above
Sequence of Cerulean-CaVβ2 (Q08289 whole entry): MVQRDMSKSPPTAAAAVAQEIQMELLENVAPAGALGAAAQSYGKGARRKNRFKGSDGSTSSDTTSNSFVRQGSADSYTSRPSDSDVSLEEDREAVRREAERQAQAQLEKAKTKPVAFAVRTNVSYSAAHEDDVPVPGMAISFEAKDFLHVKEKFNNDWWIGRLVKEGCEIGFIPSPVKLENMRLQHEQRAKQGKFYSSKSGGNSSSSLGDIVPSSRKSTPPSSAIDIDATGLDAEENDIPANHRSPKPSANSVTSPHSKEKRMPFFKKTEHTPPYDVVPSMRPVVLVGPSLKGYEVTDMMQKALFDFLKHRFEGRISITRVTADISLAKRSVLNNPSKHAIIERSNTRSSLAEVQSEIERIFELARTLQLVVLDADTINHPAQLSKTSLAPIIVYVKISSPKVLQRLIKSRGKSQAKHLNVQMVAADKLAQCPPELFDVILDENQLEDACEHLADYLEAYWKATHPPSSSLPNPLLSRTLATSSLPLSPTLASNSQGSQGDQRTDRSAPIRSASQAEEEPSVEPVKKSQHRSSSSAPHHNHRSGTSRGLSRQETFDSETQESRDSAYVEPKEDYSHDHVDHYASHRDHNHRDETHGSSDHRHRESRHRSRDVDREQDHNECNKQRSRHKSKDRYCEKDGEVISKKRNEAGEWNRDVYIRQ

[5] = target: T1, Venus-tagged β1b[NK-CT] (Rattus norvegicus (assumed), UniProt P54283); experiment: FRET or BRET; flow cytometry FRET (flow-FRET) in HEK293 cells co-expressing Cerulean-nb.E8 and Venus-tagged β1b modules or β1b/β3 chimeras; 1:1 binding model; effective dissociation constant (Kd,EFF)
T1 construct: CaVβ1b module of the NK domain and the C-terminus; the text says the module was tagged with Cerulean; source: HEK293, co-expressed, in cells
T1 sequence (P54283 whole entry, looked up, the tested form may be a part): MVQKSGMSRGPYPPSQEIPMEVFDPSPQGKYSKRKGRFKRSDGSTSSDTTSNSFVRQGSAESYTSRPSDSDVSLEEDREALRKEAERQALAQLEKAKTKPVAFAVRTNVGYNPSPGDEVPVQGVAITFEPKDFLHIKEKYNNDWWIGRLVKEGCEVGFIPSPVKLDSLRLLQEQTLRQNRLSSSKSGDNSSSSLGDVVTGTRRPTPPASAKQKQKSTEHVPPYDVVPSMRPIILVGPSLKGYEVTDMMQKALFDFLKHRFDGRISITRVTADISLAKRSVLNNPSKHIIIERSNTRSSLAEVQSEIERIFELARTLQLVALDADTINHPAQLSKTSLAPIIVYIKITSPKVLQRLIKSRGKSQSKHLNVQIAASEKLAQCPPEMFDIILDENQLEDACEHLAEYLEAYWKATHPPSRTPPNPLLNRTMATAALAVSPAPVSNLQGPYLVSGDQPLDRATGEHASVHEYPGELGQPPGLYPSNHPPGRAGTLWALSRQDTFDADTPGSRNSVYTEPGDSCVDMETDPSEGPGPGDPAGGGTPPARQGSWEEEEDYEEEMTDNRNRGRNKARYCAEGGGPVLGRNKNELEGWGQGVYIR

B1: Venus-nb.E8 (VHH)
VHH: QVQLQESGGGSVQAGGSLRLSCAASGRTFSKNAMGWFRQAPGKEREFVVAISWSGRNTYYADSVKGRFTISRDNAKNTVDLQMNSLKPEDSAVYYCAVGGDWRVYDISFYYTAHQYEYWGQGTQVTVSS
notes: llama nanobody nb.E8 from a phage display library; The methods say the nanobodies were cloned upstream of a Venus marker (pCDNA3.1), while the name Venus-nb.E8 puts the tag first; also called Venus-tagged nb.E8; source: HEK293, transiently co-transfected, in cells; not shown: Venus, C-terminal, kept
B1: no binding [1]; no binding [2]; binds [3]. B1: no binding [4].

B2: Cerulean-nb.E8 (VHH)
VHH: QVQLQESGGGSVQAGGSLRLSCAASGRTFSKNAMGWFRQAPGKEREFVVAISWSGRNTYYADSVKGRFTISRDNAKNTVDLQMNSLKPEDSAVYYCAVGGDWRVYDISFYYTAHQYEYWGQGTQVTVSS
notes: the text of the results says that the CaVβ1 modules carried Cerulean; source: HEK293, co-expressed, in cells
B2: no binding [5].

B3: Venus-nb.F3 (VHH)
VHH: QVQLQESGGGLVQAGGSLRLSCVASGRTFSSYAMGWFRQAPGKEREFVAAIDWSGGTASHADSVKGRFTISRDNAKNTVYLQMNSLKPEDTAVYYCAASSYWSRSVDEYDYWGQGTQVTVSS
notes: llama nanobody nb.F3 from a phage display library; The methods say the nanobodies were cloned upstream of a Venus marker (pCDNA3.1), while the name Venus-nb.F3 puts the tag first; also called Venus-tagged nb.F3; source: HEK293, transiently co-transfected, in cells; not shown: Venus, C-terminal, kept
B3: binds [1]; binds [2]; binds [3]. B3: binds [4].
